From article PMC10873203

Biological target: recombinant extracellular domain of human insulin receptor (human)
Assay: SDS-PAGE under non-reducing and reducing conditions (Coomassie); 0.5 µg ECD-IR in Laemmli buffer with or without 2.5% 2-mercaptoethanol, 80 °C 10 min

- stoichiometry N: 2
Substance: recombinant extracellular domain of human insulin receptor
